Patent US20220064331A1 (Genentech, published 2022)

T1: FGFR1b (human, UniProt P11362-19 22-376, limits assumed)
T1 construct: soluble protein in SPR and ELISA, whole receptor on L6 cells in the luciferase assay
T1 sequence (looked up): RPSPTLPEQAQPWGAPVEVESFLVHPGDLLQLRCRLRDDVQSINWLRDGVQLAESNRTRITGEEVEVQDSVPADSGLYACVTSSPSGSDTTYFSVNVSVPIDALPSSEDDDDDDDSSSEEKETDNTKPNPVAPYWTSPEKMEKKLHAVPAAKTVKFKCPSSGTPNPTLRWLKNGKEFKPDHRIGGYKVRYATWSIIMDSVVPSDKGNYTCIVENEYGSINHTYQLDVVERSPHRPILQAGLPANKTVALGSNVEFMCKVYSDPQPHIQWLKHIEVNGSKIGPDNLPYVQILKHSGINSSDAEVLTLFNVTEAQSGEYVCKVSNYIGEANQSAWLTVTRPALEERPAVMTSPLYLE


Tests used:
[1] = target: T1, FGFR1b; experiment: SPR (BIACORE T100), antibody captured by anti-human Fc on a CM5 chip, FGFR1 ECD protein injected, 25 °C, 1:1 Langmuir fit
[2] = target: T2, human KLB / human FGFR1c complex on cells (human, UniProt Q86Z14 53-1044; P11362 22-822); experiment: radiolabeled ligand competition binding (iodinated FGF21) on HEK293 cells expressing human FGFR1c and human KLB
T2 construct: both receptors co-expressed on HEK293 (or L6) cells; also called FGFR1c/KLB complex; 293huKLB/huR1c
Procedure: For the radioligand cell binding assay, HEK293 cells that stably co-expressing KLB and/or FGFR1c were placed into 96-well plate at a density of 100,000 to 200,000 cells per 0.2 mL in binding buffer (DMEM with 1% bovine serum albumin (BSA), 50 mM HEPES, pH 7.2, 0.1% sodium azide and 350 mM human IgG). […] Competition reactions with cells were incubated for 2 h at room temperature.

[3] = target: T2, human KLB / human FGFR1c complex on …; experiment: cell-based or functional assay

| Kd [1] [nM] | koff [1] [s⁻¹] | kon [1] [M⁻¹ s⁻¹] | Kd [2] [nM] | EC50 in GAL-ELK1 assay in HEK293 cells [3] [nM] | Binder |
| --- | --- | --- | --- | --- | --- |
| 1.13 | 0.0022 | 1.9e+06 | – | – | YW182.2 (antibody, V domains shown) VH: EVQLVESGGGLVQPGGSLRLSCAASGFTFTSTWISWVRQAPGKGLEWVGEIDPYDGDTYYADSVKGRFTISADTSKNTAYLQMNSLRAEDTAVYYCATEHFDAWVHYYVMDYWGQGTLVTVSS VL: DIQMTQSPSSLSASVGDRVTITCRASQDVSTAVAWYQQKPGKAPKLLIYSASFLYSGVPSRFSGSGSGTDFTLTISSLQPEDFATYYCQQSYTTPPTFGQGTKVEIK |
| – | – | – | 5.3 | 4.7 | hFGF21 (ligand, human, UniProt Q9NSA1 29-209, looked up, also called recombinant FGF21) HPIPDSSPLLQFGGQVRQRYLYTDDAQQTEAHLEIREDGTVGGAADQSPESLLQLKALKPGVIQILGVKTSRFLCQRPDGALYGSLHFDPEACSFRELLLEDGYNVYQSEAHGLPLHLPGNKSPHRDPAPRGPARFLPLPGLPPALPEPPGILAPQPPDVGSSDPLSMVGPSQGRSPSYAS |
